# Measured values: US20230212319A1, “NOVEL ANTIGEN BINDING DOMAINS AND SYNTHETIC ANTIGEN RECEPTORS INCORPORATING THE SAME” (University of Southern California, priority 2020, published 2023)
# B1: CD8SP-BCMA-FHVH-93-G4S-hu-mROO5-vL-[hTCRb-S57C]-F-P2A-IgHSP-CD20-VHH-USC1-2HCD26-G4S-AFP-Va-14-3-AI-[hTCRa-T48C]-F-F2A-PAC (protein)
# chain: MALPVTALLLPLALLLHAARPACEVQLLESGGGLIQPGGSLRLSCAASGFTFSSHAMTWVRQAPGKGLEWVSAISGSGDYTHYADSVKGRFTISRDNSKNTVYLQMNSLRAEDSAVYYCAKDEDGGSLLGHRGQGTLVTVSSGTGGGGSGGGGSGGGGSEFDIQMTQSPSSLSASVGDRVTITCKASDHINNWLAWYQQKPGQAPKLLIYGATTLETGVPSRFSGSGSGTDYTLTISSLQPEDFATYYCQQSWNTPWTFGQGTKLEIKRLEDLKNVFPPEVAVFEPSEAEISHTQKATLVCLATGFYPDHVELSWWVNGKEVHSGVCTDPQPLKEQPALNDSRYCLSSRLRVSATFWQNPRNHFRCQVQFYGLSENDEWTQDRAKPVTQIVSAEAWGRADCGFTSESYQQGVLSATILYEILLGKATLYAVLVSALVLMAMVKRKDSRGRAKRSGSGATNFSLLKQAGDVEENPGPTSATMDWIWRILFLVGAATGAHSGPEVQLVESGGGLVQAGGSLRLSCAASGRTFSMGWFRQAPGKEREFVAAITYSGGSPYYADSVKGRFTISRDNAKNTVYLQMNSLKPEDTAVYYCAANPTYGSDWNAENWGQGTQVTVSSGSGGGGSGGGGSGGGGSFEQKEVEQNSGPLSVPEGAIASLNCTYSDRGSQSFFWYRQYSGKSPELIMSIYSNGDKEDGRFTAQLNKASQYVSLLIRDSQPSDSATYLCAVNSQSGVALNFGKGTSLLVTPHIQNPDPAVYQLRDSKSSDKSVCLFTDFDSQTNVSQSKDSDVYITDKCVLDMRSMDFKSNSAVAWSNKSDFACANAFNNSIIPEDTFFPSPESSCDVKLVEKSFETDTNLNFQNLSVIGFRILLLKVAGFNLLMTLRLWSSRAKRSGSGVKQTLNFDLLKLAGDVESNPGPSRGHMTEYKPTVRLATRDDVPRAVRTLAAAFADYPATRHTVDPDRHIERVTELQELFLTRVGLDIGKVWVADDGAAVAVWTTPESVEAGAVFAEIGPRMAELSGSRLAAQQQMEGLLAPHRPKEPAWFLATVGVSPDHQGKGLGSAVVLPGVEAAERAGVPAFLETSAPRNLPFYERLGFTVTADVEVPEGPRTWCMTRKPGA
# B2: CD8SP-CD19-hu-mROO5-1-vL-IgCL-TCRg-6MD-F-P2A-SP-CD19-hu-mROO5-1-vH-hTCR-delta-F-F2A-PAC (protein)
# chain: MALPVTALLLPLALLLHAARPDIQMTQSPSSLSASVGDRVTITCKASDHINNWLAWYQQKPGQAPKLLIYGATTLETGVPSRFSGSGSGTDYTLTISSLQPEDFATYYCQQSWNTPWTFGQGTKLEIKRLEGQPKANPTVTLFPPSSEELQANKATLVCLISDFYPGAVTVAWKADGSPVKAGVETTKPSKQSNNKYAASSYLSLTPEQWKSHRSYSCQVTHEGSTVEKTVAPTECSPIKTDVITMDPKDNCSKDANDTLLLQLTNTSAYYMYLLLLLKSVVYFAIITCCLLRRTAFCCNGEKSRAKRSGSGATNFSLLKQAGDVEENPGPTSMDWIWRILFLVGAATGAHSFEQVQLQQPGAELVKPGASVKMSCKASGYAFSSYWINWMKQKPGQGLEWIGQIYPGDGDTNYNGKFKGRATLTADTSSSTAYMQLSSLTSEDSAVYFCARSITTVVGCAMDYWGQGTSVTVSSTRSQPHTKPSVFVMKNGTNVACLVKEFYPKDIRINLVSSKKITEFDPAIVISPSGKYNAVKLGKYEDSNSVTCSVQHDNKTVHSTDFEVKTDSTDHVKPKETENTKQPSKSCHKPKAIVHTEKVNMMSLTVLGLRMLFAKTVAVNFLLTAKLFFLRAKRSGSGVKQTLNFDLLKLAGDVESNPGPSRGHMTEYKPTVRLATRDDVPRAVRTLAAAFADYPATRHTVDPDRHIERVTELQELFLTRVGLDIGKVWVADDGAAVAVWTTPESVEAGAVFAEIGPRMAELSGSRLAAQQQMEGLLAPHRPKEPAWFLATVGVSPDHQGKGLGSAVVLPGVEAAERAGVPAFLETSAPRNLPFYERLGFTVTADVEVPEGPRTWCMTRKPGA
# B3: SEQ ID NO: 22252: bispecific SAR on CD19 targeted SIR backbone comprising the receptor binding domain of the ligand 4-1BB (protein)
# chain: MALPVTALLLPLALLLHAARPDIQMTQSPSSLSASVGDRVTITCKASDHINNWLAWYQQKPGQAPKLLIYGATTLETGVPSRFSGSGSGTDYTLTISSLQPEDFATYYCQQSWNTPWTFGQGTKLEIKRLEDLKNVFPPEVAVFEPSEAEISHTQKATLVCLATGFYPDHVELSWWVNGKEVHSGVCTDPQPLKEQPALNDSRYCLSSRLRVSATFWQNPRNHFRCQVQFYGLSENDEWTQDRAKPVTQIVSAEAWGRADCGFTSESYQQGVLSATILYEILLGKATLYAVLVSALVLMAMVKRKDSRGRAKRSGSGATNFSLLKQAGDVEENPGPTSATMDWIWRILFLVGAATGAHSGPGLLDLRQGMFAQLVAQNVLLIDGPLSWYSDPGLAGVSLTGGLSYKEDTKELVVAKAGVYYVFFQLELRRVVAGEGSGSVSLALHLQPLRSAAGAAALALTVDLPPASSEARNSAFGFQGRLLHLSAGQRLGVHLHTEARARHAWQLTQGATVLGLFRVTPEIPAGLPSPRSEGSGGGGSGGGGSGGGGSFEQVQLQQPGAELVKPGASVKMSCKASGYAFSSYWINWMKQKPGQGLEWIGQIYPGDGDTNYNGKFKGRATLTADTSSSTAYMQLSSLTSEDSAVYFCARSITTVVGCAMDYWGQGTSVTVSSTRIQNPDPAVYQLRDSKSSDKSVCLFTDFDSQTNVSQSKDSDVYITDKCVLDMRSMDFKSNSAVAWSNKSDFACANAFNNSIIPEDTFFPSPESSCDVKLVEKSFETDTNLNFQNLSVIGFRILLLKVAGFNLLMTLRLWSSRAKRSGSGVKQTLNFDLLKLAGDVESNPGPSRGHMTEYKPTVRLATRDDVPRAVRTLAAAFADYPATRHTVDPDRHIERVTELQELFLTRVGLDIGKVWVADDGAAVAVWTTPESVEAGAVFAEIGPRMAELSGSRLAAQQQMEGLLAPHRPKEPAWFLATVGVSPDHQGKGLGSAVVLPGVEAAERAGVPAFLETSAPRNLPFYERLGFTVTADVEVPEGPRTWCMTRKPGA
# B4: SEQ ID NO: 22253: bispecific SAR on CD19 targeted SIR backbone comprising the receptor binding domain of the ligand APRIL (protein)
# chain: MALPVTALLLPLALLLHAARPDIQMTQSPSSLSASVGDRVTITCKASDHINNWLAWYQQKPGQAPKLLIYGATTLETGVPSRFSGSGSGTDYTLTISSLQPEDFATYYCQQSWNTPWTFGQGTKLEIKRLEDLKNVFPPEVAVFEPSEAEISHTQKATLVCLATGFYPDHVELSWWVNGKEVHSGVCTDPQPLKEQPALNDSRYCLSSRLRVSATFWQNPRNHFRCQVQFYGLSENDEWTQDRAKPVTQIVSAEAWGRADCGFTSESYQQGVLSATILYEILLGKATLYAVLVSALVLMAMVKRKDSRGRAKRSGSGATNFSLLKQAGDVEENPGPTSATMDWIWRILFLVGAATGAHSGPVLHLVPINATSKDDSDVTEVMWQPALRRGRGLQAQGYGVRIQDAGVYLLYSQVLFQDVTFTMGQVVSREGQGRQETLFRCIRSMPSHPDRAYNSCYSAGVFHLHQGDILSVIIPRARAKLNLSPHGTFLGFVKLGSGGGGSGGGGSGGGGSFEQVQLQQPGAELVKPGASVKMSCKASGYAFSSYWINWMKQKPGQGLEWIGQIYPGDGDTNYNGKFKGRATLTADTSSSTAYMQLSSLTSEDSAVYFCARSITTVVGCAMDYWGQGTSVTVSSTRIQNPDPAVYQLRDSKSSDKSVCLFTDFDSQTNVSQSKDSDVYITDKCVLDMRSMDFKSNSAVAWSNKSDFACANAFNNSIIPEDTFFPSPESSCDVKLVEKSFETDTNLNFQNLSVIGFRILLLKVAGFNLLMTLRLWSSRAKRSGSGVKQTLNFDLLKLAGDVESNPGPSRGHMTEYKPTVRLATRDDVPRAVRTLAAAFADYPATRHTVDPDRHIERVTELQELFLTRVGLDIGKVWVADDGAAVAVWTTPESVEAGAVFAEIGPRMAELSGSRLAAQQQMEGLLAPHRPKEPAWFLATVGVSPDHQGKGLGSAVVLPGVEAAERAGVPAFLETSAPRNLPFYERLGFTVTADVEVPEGPRTWCMTRKPGA
# Test system: RAJI cells
# Assay: JNG assay, co-culture with RAJI cells
# Assay type: cell-based
# Conditions: co-culture with RAJI cells
# Protocol: Cellular supernatant is collected and assayed for the induction of cytokines (e.g., IL2).
# JNG (Jurkat cells expressing EGFP under an NFAT promoter) were infected with lentiviral vectors encoding different single chain and multi-chain SARs by spinfection in the presence of 8 µg/ml of Polybrene® (Sigma, Catalog no. H9268). The Jurkat-NFAT-GFP cells are engineered in such a way that the IL-2 promoter, which carries NFAT binding sites, is cloned upstream of the GFP gene. These cells have been used to study signaling via TCR and CAR. The different SARs were stably expressed in Jurkat NFAT-GFP cells by lentiviral mediated gene transfer, followed by selection with puromycin or blasticidin. No drug selection was used in case the construct lacked an antibiotic resistance gene. The SAR-expressing Jurkat-NFAT-GFP cells were cocultured with the target cells at E:T ratio of approximately 1:2 for approximately 4 hours to 18 hours. When the interaction between SIRs and their target antigen results in activation of the NFAT pathway, GFP expression is induced. […] GFP expression was monitored by FACS analysis. The Jurkat-NFAT-GFP (parental) cells were used as control. The structure of different constructs can be determined based on their names. […] The sequence of the other constructs in the table can be similarly determined from their names and by referring to the different Tables of this disclosure that provide the names and SEQ ID NO of the different modules. Alternatively, the composition and modular architecture of the different SAR constructs can be determined from their sequences by bioinformatics tools, including using nucleic acid and amino acids homology searches. A SAR is considered positive in the assay in case the SAR expressing Jurkat-NFAT-GFP cells show greater % GFP positive cells when cultured with the target cell line as compared to parental Jurkat-NFAT-GFP cells. […] In general, the number +/-, +, 2+, 3+, 4+, 5+ refer to approximately 5%, 10%, 20%, 30%, 40% and 50% GFP positive cells. The % of GFP induction in the above assay is dependent not only the relative strength of the SAR but also, among other factors, on the relative level of expression of the SAR in the JNG cells and the relative level of expression of the target antigen in the target cell line. To control for the difference in gene transduction efficiency of the different SAR constructs, the experiment was conducted with JNG cells transduced with SAR constructs co-expressing a drug resistance gene (e.g., puromycin or PAC) followed by drug selection to generate a stable population of SAR-expressing cells. It is to be noted that the drug resistance gene (e.g., PAC) in the SAR constructs is optional and in vivo studies were conducted with SAR constructs lacking the PAC gene.
row,Molecule,GFP induction / activity
1,B1,robust GFP induction activity
2,B2,robust GFP induction
3,B3,retained the ability to respond
4,B4,retained the ability to respond
